Reference: US20240368301A1

Assays:
[1] = target: SIRPα V2-his (made by transient transfection of HEK293F cells according to SEQ ID NO:38) (Homo sapiens (Human)) (UniProt P78324); test: competition ELISA; coated SIRPα-V2-his, biotin-CD47 as competitor
[2] = target: SIRPα V2-his (made by transient transfection of HEK293F cells according to SEQ ID NO:38) (Homo sapiens (Human)) (UniProt P78324); test: BLI (Octet RED 96), His-tagged antigen on Ni-NTA sensor, antibody in solution

SIRPα V2-his (made by transient transfection of HEK293F cells according to SEQ ID NO:38) (Homo sapiens (Human)), sequence (P78324 other isoform, or with tags, fused parts or gaps limits assumed): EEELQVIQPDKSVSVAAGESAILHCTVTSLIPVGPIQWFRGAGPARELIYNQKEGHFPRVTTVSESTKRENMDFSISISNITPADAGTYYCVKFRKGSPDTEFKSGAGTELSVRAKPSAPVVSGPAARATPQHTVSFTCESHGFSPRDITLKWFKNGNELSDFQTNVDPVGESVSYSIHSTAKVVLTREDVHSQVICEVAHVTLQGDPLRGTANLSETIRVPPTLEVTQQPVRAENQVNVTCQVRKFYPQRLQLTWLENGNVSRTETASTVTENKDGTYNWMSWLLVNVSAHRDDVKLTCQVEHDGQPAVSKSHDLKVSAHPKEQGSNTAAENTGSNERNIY

B1: AD4-12 (antibody, V domains shown)
VH: EVQLEESGPGLVAPSQSLSITCTVSGFSLTGYGVNWVRQPPGKGLEWLGIIWGDGSTDYNSALKSRLSISKDNSKSQVFLKMNSLQSDDTARYYCARAGKMDYWGQGTSVTVSS
VL: DIVLTQSPASLAVSLGQGATISCRASESVDSYGNSFMHWYQQKPGQPPKPLIYLASNLESGVPARFSGSGSRTDFTLTIDPVEADDAATYYCQQNNEYPWTFGGGTKLEIK
IC50 [1]: 9.32 nM
Kd [2]: 0.898 nM
koff [2]: 0.000327 s⁻¹
kon [2]: 364000 M⁻¹ s⁻¹
